Results from the DeepSol protein solubility set.

Experiment: soluble on expression in E. coli; label from the status in PepcDB or PDB records

Row | Sequence | soluble on expression in E. coli
1 | MPNSKKSKKGGDQQHVTIVPVEPVKGENVDTVAYSSRSRISGESGHLIADVQSPHAKKHRIIFDRDHNVFEFRLLDGSAKHIIVYRLDELLSTTCYPFKIKNGVPIIPTKPTTSDKTLYFNFVYKKDKQKWRLKQIPVIFYTTSERDYWHSLIDTTLRRVKNRPKNIIIFINPFGGNGKAQKIFKDNVDAFFWLTPGLRYKVVLTERANHARDYIVEMPPEQWSAIDGLVSVGGDGLFNELLSGALLRTQTDAGRNIDNPSSHLVTPHIRFGIIGAGSANSIVSTVHETNDHATSAVHIAIGSECNVDVCTVHQHQKLIRISANAISYGWLGDVLRDSEEYRCLGPIRYQWSALRTTIRHPIYRGMVQFSLSHKENVNPKDQLPPCLEPCPVCMKPQGNDKYDYHWHAEFTHVICCVIPTVTPFTPYGLAPFTGIGDGTLDLALVPRISRFHNMQFMRKVAMYGGKQLYELDPSLNCYRVTKWSYQPDADQEDPGVWNLDGEILEQPKDEPLHFKLHPQLISFFGRDAAMVKPTKRSFIKKRKSSIVYQ | not soluble
2 | MTENERAHADHASASPQRTRRRRGKPRRRMDSGASTQGGGASKSAAPSSSTSGSRGERGSRGDDKDKQNKHTRRKRRPAHRSTQRGSHGGDSSNSGSGIKRRRHTGNKNRGNQSRRQNNRSSRITTRDETSAGGLVISGLAEAVDENNNVDLSRIYVALIGRL | not soluble
3 | MRGSHHHHHHGMASMTGGQQMGRDLYDDDDKDRWIRTGGYQPTLWDFSTIQSFDSEYKEEKHLMRAAGMIDQVKMMLQEEVDSIRRLELIDDLRRLGISCHFEREIVEILNSKYYTNNEIDERDLYSTALRFRLLRQYDFSVSQEVFDCFKNAKGTDFKPSLVDDTRGLLQLYEASFLSAQGEETLRLARDFATKFLQKRVLVDKDINLLSSIERALELPTHWRVQMPNARSFIDAYKRRPDMNPTVLELAKLDFNMVQAQFQQELKEASRWWNSTGLVHELPFVRDRIVECYYWTTGVVERRQHGYERIMLTKINALVTTIDDVFDIYGTLEELQLFTTAIQRWDIESMKQLPPYMQICYLALFNFVNEMAYDTLRDKGFDSTPYLRKVWVGLIESYLIEAKWYYKGHKPSLEEYMKNSWISIGGIPILSHLFFRLTDSIEEEAAESMHKYHDIVRASCTILRLADDMGTSLDEVERGDVPKSVQCYMNEKNASEEEAREHVRSLIDQTWKMMNKEMMTSSFSKYFVEVSANLARMAQWIYQHESDGFGMQHSLVNKMLRDLLFHRYE | soluble
4 | MEPGTYELRGTVHDETFNTTVWTPYNFEGFYYSIDENVSTESLTLTEEISGRSIDDEALVYSTSPALVKFEQESWGSYQVIGFMAEKYFAGYPANTFGNSRSVSVLSDDILAKVLIDDDHKRSMFTGSSIALENGYSLKAAEVDVNGNRVLLELYRDGELVDSGITSSNGDYIYEADIGGAEDVPMIAAHISTVFRSRETDAVFIEGIFQVSDDYLELSQGDSFGKMEISTISSSGITMKNEDSISLSRGNTISLMGNVSFKVADSNVLRFYPFVEVKSAPQDQLRIETPDVFVVGEAAEISVTARDAAVSDVEIRLGNQSIGTTGDDGILAYTPTLEGDFTLYANKAGYLSGSKDVDIVLEHHHHHH | soluble
5 | DNTQHYRELFLDDIPLMDVRAPVEYHKGAFPNTVNRPLMNDIERQKVGTSYKQHGQQAAIALGHELVCGALKAERLAAWKAFAEANPNGYLYCFRGGLRSQIVQQWLKQDAGIDYPRVIGGYKALRNFLFETTRAAVDECDFVLVGGLTGCGKTEVIAALDNSLDLEGHANHRGSSFGRRATPQPAQIDFENRLAIDILKKRHRGVGQFVLEDEGRIVGSCSLPLELYQGMQGYPLVWLEDAFEQRVERILRDYVIDLRSEFERVVGVEEGFAAFSAYLQKSLAGIVKRLGGERYQRLAAILVQALEEQGRDGSVDTHRGWIEGLLKEYYDPMYAFQRQSKEDRVEFRGNQAEVIGYLR | not soluble
6 | MSLKITKLEKKKRLYLMELDNGDKCYITEDTIVRFMLSRDKVISEEELKEIQDFAQFSYGKNLALYHLSFKARTEKEVREYLKKYDIDKNIVSQVIANLKEDKWINDGQYAYAIINTNQLSGDKGPYVLTQKLAQKGISKSTIEENLKEFDFSEVAQRVANKLLKKYEGKLPARALQDKIIQNLTNKGFSYSDAKIAFDDLDSQVDQETTQELIFKELDKQYTKYARKYEGYELKQRLTQVLARKGYDFSDIASALREYLEGHHHHHH | soluble
7 | MEDHSSSIAVHKLDGDLLLRTAEIGDADMIAAYFQSNRDYLKPFEPKREEAFFSVNGWLQKLIKLNELHRMGLGYYCLLIHVDT | not soluble
8 | EEPSSNEIHIGSLVIFPDAYVVSKRDETIELTHREFELLHYLAKHIGQVMTREHLLQTVWGYDYFGDVRTVDVTVRRLREKIEDNPSHPNWIVTRRGVGYYLRNPEQD | soluble
9 | MNKVAIAVAAVVAGSSALLNSAQAEMYIGGKVGMTTLDDACYLNSPCDDEAFGAGLHIGYDFTDFIGLEYGVDFLGDYKANFKSGASTVDTIDGNLTALTLAPKFNWHLNDSWNLFAKIGGAYMMSEDEKDFVATGSLGAEYSIDRNWSVRAEYQRYQDMSDDVWDDMDANFFGIGVNYKFAAAPVVAAVVTEEVVEPDPEPVLMSKVH | not soluble
10 | VQLSPDLLATLPEPASPGRQACGRRHKKRTFLRPRIIGGSSSLPGSHPWLAAIYIGDSFCAGSLVHTCWVVSAAHCFSHSPPRDSVSVVLGQHFFNRTTDVTQTFGIEKYIPYTLYSVFNPSDHDLVLIRLKKKGDRCATRSQFVQPICLPEPGSTFPAGHKCQIAGWGHLDENVSGYSSSLREALVPLVADHKCSSPEVYGADISPNMLCAGYFDCKSDACQGDSGGPLACEKNGVAYLYGIISWGDGCGRLHKPGVYTRVANYVDWINDRIRPPRRLVAPS | soluble
11 | MDFMISHFCDEQNHQPLYKTRRQSISDSKNGPTLLSSSLPTNDECSDSDTENRLPPETELGNIEYKAKLVNPTTSRIQHLITQMKWRLREGQGEAIYEIGVEDGGIMSGLTDEELNDSLRTLRTMAQALGASMVILTEKDVTVKGSNSRRTVVEVLVRKVPESQQFIEVRLAVVGGCDVGKSTLCGVLTQGCLDDGNGKARIGIFRFPHEVRTGKTSSVCNDVIGFDNRGKLVNYAQNSLEEMVEKSSKLVTLIDLAGDAKYQKTTIHGLTGYTPHFACLVVAADRGITWATREHLGLIAALNIPMFVLITKMDLVDRQGLKKIIKDVSNLVAKAGMTAREKRVKTKRDAVKAAQELCVGSIVPVLAVSSVSGEGFRCLRTLLNCLSTAGTAESRIQLVGLPAFFTIEELYNVPHVGQVVGGMLSEGQLHEGADVLVGPMKDGTFEKITVGSIRRSRQAVGCVNPGEAASISLNLPDGVSLRRGMVLAEIDHQPPVCYEFTANLLLLCHSTKYICEGFQATVFIGSVCTTAIITHIDDADCIRPGKWAVVKMCFAYQPEVIREGSPIILRQGKTKGMGEVLKVFPCTQ | not soluble
12 | MGSDKIHHHHHHMSVGIRHDDLRRRNRAMVIAAVRRAGRPSRTEIAATTGLSHSTISAISSDLIGEGILAEGKPSEAGALKRGRPQVGLGLNPEAAAVMTVVLSLNFLSVAVIDYAGQVISEEQRRLDTLTMSREALIGECVAIVRRRLEDPDIDVRSVARIALAIQGITDTEARAMLWSPITPQTDIAFADILEAEFGIPATMENDCNMMAVALRWRDPERYRDDFIAILLSHGIGMGLVLKGELFTGTHSSGGEFGHMIHRPGGALCRCGRRGCVEAYAGNYAIWRNARQLSEDTEPVADVSDAQMRALAATARERDGPEREAYRKAGEALGYGLGSLFALIDPAPVAMVGVSAAAFDLIEPALREAIAQTAGGQHSESISFDTEPNELPLIREGCAMRALTFVDQEIFAPGVQTKAGLAAKKNVA | not soluble
13 | MPRRIDKVSSMTKGHITMSMNKLNLFNIYRKDPLQYFGKTLYQQKWAAKTETRNYHGQQIKEKRFKNVLFDSNLKTYSQLDASLKGHDVAPTPITLQTYGTLEKRLEIALFRSMFASSVRQARQFILGGYVKVNGVVIKHPSFPLQSGDVFSVDPEKVLFALGKTKPSLEKALSVDKKQIKKWNNYVFEAKKNPEKIWDLKQNKPDSLDTLKQVEDFEKQKKSVQNAQKLMKIQQNQVTRQSILQEIIQLGNAASEPASLETFNKYGDVARTKCLQIYQTLTNKNHPITKDPSTKNIEGFLAKDENKSPEEKHEVRLINSTLRELQSSEWERIRIQFENFEEGTDTKFFQTSFAKALRGVPKLNKEEILEDESKAKVQLPWQKHLFGRKDPSRSYFTPWTPRPFLGAFAILPSHIEISFDTCHAIYLRDPVARPGHSEVISPFPDHVHERAYMYYVRKGKS | not soluble
